These results are taken from patent publication US20110008345A1 (GlaxoSmithKline, published 2011).

Where two headings read alike, the source gives them in different places.

A word on the Kd: it is the constant that tells how readily two partners part at equilibrium. As usually defined, the IC50 is the concentration that gives 50% inhibition. Broadly, the koff is the rate constant with which the complex falls apart. As usually defined, the kon is the rate constant with which the complex forms.

In assay [1] the target is T1, recombinant E. coli-expressed human IL-13 (human, UniProt P35225 35-146).
T1 construct: made and purified at GSK; also called Interleukin-13; rhIL-13
Kind of assay: SPR. (In general: In SPR one partner is held on a chip, and binding of the other changes the refractive index at the surface.)

For assay [2], the target named is T1, recombinant E. coli-expressed human …. Kind of assay: cell-based or functional assay.
The target in assay [3] is T2, recombinant E. coli-expressed cynomolgus IL-13 (cynomolgus, UniProt Q0PW92 21-132). Kind of assay: cell-based or functional assay.
Assay [4] addresses T1, recombinant E. coli-expressed human …. Kind of assay: cell-based or functional assay. The source holds these as a separate data set.
The target of assay [5] is T2, recombinant E. coli-expressed …. Kind of assay: cell-based or functional assay. The source holds these as a separate data set.
In assay [6] the target is T1, recombinant E. coli-expressed human …. The experiment in a line: ELISA, IL-13 binding to IL13Ralpha2/Fc. (In general: ELISA stands for enzyme-linked immunosorbent assay.)
For assay [7] the target is unchanged. Kind of assay: SPR. The source holds these as a separate data set.
In assay [8] the target is T3, recombinant E. coli-expressed human IL-4 (human, UniProt P05112 25-153).
T3 construct: made and purified at GSK; also called Interleukin-4; rhIL-4
T3 sequence: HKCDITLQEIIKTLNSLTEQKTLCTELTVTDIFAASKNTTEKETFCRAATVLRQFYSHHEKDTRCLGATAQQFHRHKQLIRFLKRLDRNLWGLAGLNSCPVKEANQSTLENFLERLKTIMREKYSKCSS
The experiment in a line: SPR.

Assay [9] addresses T2, recombinant E. coli-expressed …. The experiment in a line: SPR.
For assay [10] the target is unchanged. The experiment in a line: SPR. The source holds these as a separate data set.
In assay [11] the target is T4, recombinant E. coli-expressed cynomolgus IL-4 (cynomolgus, UniProt P79339 25-153).
T4 construct: also called cyno IL-4
T4 sequence (looked up): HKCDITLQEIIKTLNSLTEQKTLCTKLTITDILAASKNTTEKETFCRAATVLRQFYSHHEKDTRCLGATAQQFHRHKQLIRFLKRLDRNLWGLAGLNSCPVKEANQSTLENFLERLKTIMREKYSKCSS
Kind of assay: SPR.

Assay [12] deals with T1, recombinant E. coli-expressed human …. Kind of assay: cell-based or functional assay. The source holds these as a separate data set.
Assay [13] deals with T2, recombinant E. coli-expressed …. The experiment in a line: cell-based or functional assay. This is another data set of the same source.
Assay [14] has as its target T3, recombinant E. coli-expressed human IL-4. Kind of assay: cell-based or functional assay.
Assay [15] has the same target. Kind of assay: ELISA, IL-4 binding to IL4Ralpha-Fc.
In assay [16] the target is T5, recombinant human HER2 (human, UniProt P04626 23-652, limits assumed).
T5 construct: bought
The experiment in a line: ELISA.

B1: BPC1615 (bispecific antibody, human IgG1, kappa)
heavy: not shown
light: EIVLTQSPATLSLSPGERATLSCRASQNISDYLHWYQQKPGQAPRLLIYYASQSISGIPARFSGSGSGTDFTLTISSLEPEDFAVYYCQNGHSFPLTFGGGTKVEIKRTVAAPSVFIFPPSDEQLKSGTASVVCLLNNFYPREAKVQWKVDNALQSGNSQESVTEQDSKDSTYSLSSTLTLSKADYEKHKVYACEVTHQGLSSPVTKSFNRGEC
notes: also called 656H TVAAPS-210 & 656kappa
B1: the Kd in assay [1] came out at 0.085 nM.

B2: DOM10-53-616 domain antibody (other)
VH: GVQLLESGGGLVQPGGSLRLSCAASGFVFPWYDMGWVRQAPGKGLEWVSSIDWHGKITYYADSVKGRFTISRDNSKNTLYLQMNSLRAEDTAVYYCATAEDEPGYDYWGQGTLVTVSS
notes: anti-IL-13 dAb
On to B2, for which the “Mean ND50 (TF-1)” value in assay [2] turned out to be 0.416 nM; in [3] it was 4.81 nM; in assay [4], 0.536 nM; in [5], 3.57 nM. In assay [6], the IC50 turned out to be 5.76 nM.

B3: BPC1609 (bispecific antibody, human IgG1, kappa)
heavy: not shown
light: DIVMTQSPLSLPVTPGEPASISCRSSQNIVHINGNTYLEWYLQKPGQSPRLLIYKISDRFSGVPDRFSGSGSGTDFTLKISRVEADDVGIYYCFQGSHVPWTFGQGTKLEIKRTVAAPSVFIFPPSDEQLKSGTASVVCLLNNFYPREAKVQWKVDNALQSGNSQESVTEQDSKDSTYSLSSTLTLSKADYEKHKVYACEVTHQGLSSPVTKSFNRGEC
Consider B3, for which, in assay [1], the dissociation constant Kd came to 1.01 nM.

B4: BPC1612 (bispecific antibody, human IgG1, kappa)
heavy: not shown
light: DIVMTQSPLSLPVTPGEPASISCRSSQNIVHINGNTYLEWYLQKPGQSPRLLIYKISDRFSGVPDRFSGSGSGTDFTLKISRVEADDVGIYYCFQGSHVPWTFGQGTKLEIKRTVAAPSVFIFPPSDEQLKSGTASVVCLLNNFYPREAKVQWKVDNALQSGNSQESVTEQDSKDSTYSLSSTLTLSKADYEKHKVYACEVTHQGLSSPVTKSFNRGEC
For the molecule B4, in [1], the Kd was found to be 0.565 nM.

B5: PascoH-TVAAPS-567 (bispecific antibody, human IgG1, kappa)
heavy: not shown
light: DIVLTQSPSSLSASVGDRVTITCKASQSVDYDGDSYMNWYQQKPGKAPKLLIYAASNLESGIPSRFSGSGSGTDFTFTISSLQPEDIATYYCQQSNEDPPTFGQGTKVEIKRTVAAPSVFIFPPSDEQLKSGTASVVCLLNNFYPREAKVQWKVDNALQSGNSQESVTEQDSKDSTYSLSSTLTLSKADYEKHKVYACEVTHQGLSSPVTKSFNRGEC
For B5, in [7], the Kd is 0.038 nM, the koff was 1.7e-05 s⁻¹ and the kon came out at 446000 M⁻¹ s⁻¹. Besides, in assay [8], the binding result is recorded as “binds”. Further, in assay [9], the Kd came out at 8.8 nM, the koff amounted to 0.00522 s⁻¹ and the kon amounted to 592000 M⁻¹ s⁻¹. In [4], the “Mean ND50 (TF-1)” value is 2.06 nM. Besides, in [5], the “Mean ND50 (TF-1)” value stood at 38.2 nM.

B6: PascoH-GS-ASTKGPT-474 2nd GS removed (bispecific antibody, human IgG1, kappa)
heavy: not shown
light: DIVLTQSPSSLSASVGDRVTITCKASQSVDYDGDSYMNWYQQKPGKAPKLLIYAASNLESGIPSRFSGSGSGTDFTFTISSLQPEDIATYYCQQSNEDPPTFGQGTKVEIKRTVAAPSVFIFPPSDEQLKSGTASVVCLLNNFYPREAKVQWKVDNALQSGNSQESVTEQDSKDSTYSLSSTLTLSKADYEKHKVYACEVTHQGLSSPVTKSFNRGEC
Take B6: in assay [10], the Kd stood at 23.8 nM, the koff came out at 0.0114 s⁻¹ and the kon came out at 479000 M⁻¹ s⁻¹. Further, in assay [11], the Kd came out at 0.029 nM, the koff came out at 5.3e-05 s⁻¹ and the kon was 1.83e+06 M⁻¹ s⁻¹. Besides, the “Mean ND50 (TF-1)” value in assay [12] is 1.37 nM. Also, in assay [13], the “Mean ND50 (TF-1)” value came to 21.5 nM.

B7: PascoH-TVAAPS-546 (bispecific antibody, human IgG1, kappa)
heavy: not shown
light: DIVLTQSPSSLSASVGDRVTITCKASQSVDYDGDSYMNWYQQKPGKAPKLLIYAASNLESGIPSRFSGSGSGTDFTFTISSLQPEDIATYYCQQSNEDPPTFGQGTKVEIKRTVAAPSVFIFPPSDEQLKSGTASVVCLLNNFYPREAKVQWKVDNALQSGNSQESVTEQDSKDSTYSLSSTLTLSKADYEKHKVYACEVTHQGLSSPVTKSFNRGEC
In the case of B7, the Kd stood at 0.747 nM in assay [7], 0.00482 nM in [8] and 12.5 nM in assay [9]. Further, the koff in [7] was found to be 0.000169 s⁻¹; in assay [8] it was 2.37e-05 s⁻¹; in assay [9], 0.0209 s⁻¹. The on-rate constant (kon) in [7] came out at 226000 M⁻¹ s⁻¹; in assay [8], 4.92e+06 M⁻¹ s⁻¹; in assay [9], 1.67e+06 M⁻¹ s⁻¹. In addition, the “Mean ND50 (TF-1)” value in assay [4] was found to be 1.52 nM; in assay [5] it was 33.9 nM.

B8: DOM9-112-210 domain antibody (other)
VH: EVQLLESGGGLVQPGGSLRLSCAASGFTFRNFGMGWVRQAPGKGLEWVSWIISSGTETYYADSVKGRFTISRDNSKNTLYLQMNSLRAEDTAVYYCAKSLGRFDYWGQGTLVTVSS
notes: anti-IL-4 dAb
Turning to B8, the “Mean IC50 (whole blood phospho-STAT6)” value in assay [14] came to 3.51 nM. Besides, in [15], the IC50 came to 36.8 nM.

B9: BPC1805 (bispecific antibody, human IgG1, kappa)
heavy: not shown
light: DIVMTQSPLSLPVTPGEPASISCRSSQSIVQSNGDTYLEWYLQKPGQSPQLLIYRVSNRFSGVPDRFSGSGSGTDFTLKISRVEAEDVGVYYCFQGSHVPYTFGQGTKLEIKRTVAAPSVFIFPPSDEQLKSGTASVVCLLNNFYPREAKVQWKVDNALQSGNSQESVTEQDSKDSTYSLSSTLTLSKADYEKHKVYACEVTHQGLSSPVTKSFNRGEC
notes: anti-HER2 Affibody fusion; also called antiIGF1R Heavy Chain-GS-AFFI
For B9, in [16], the binding result is “binds”.

B10: BPC1808 (bispecific antibody, human IgG1, kappa)
heavy: not shown
light: DIVMTQSPLSLPVTPGEPASISCRSSQSIVQSNGDTYLEWYLQKPGQSPQLLIYRVSNRFSGVPDRFSGSGSGTDFTLKISRVEAEDVGVYYCFQGSHVPYTFGQGTKLEIKRTVAAPSVFIFPPSDEQLKSGTASVVCLLNNFYPREAKVQWKVDNALQSGNSQESVTEQDSKDSTYSLSSTLTLSKADYEKHKVYACEVTHQGLSSPVTKSFNRGEC
notes: anti-HER2 DARPin fusion
B10: the binding result in [16] is “binds”.

B11: BPC1807 (bispecific antibody, human IgG1, kappa)
heavy: not shown
light: DIVMTQSPLSLPVTPGEPASISCRSSQSIVQSNGDTYLEWYLQKPGQSPQLLIYRVSNRFSGVPDRFSGSGSGTDFTLKISRVEAEDVGVYYCFQGSHVPYTFGQGTKLEIKRTVAAPSVFIFPPSDEQLKSGTASVVCLLNNFYPREAKVQWKVDNALQSGNSQESVTEQDSKDSTYSLSSTLTLSKADYEKHKVYACEVTHQGLSSPVTKSFNRGEC
notes: anti-HER2 DARPin fusion; also called antiIGF1R Heavy Chain-GS-DRPN
As to B11, the binding result in assay [16] was “binds”.

B12: BPC1806 (bispecific antibody, human IgG1, kappa)
heavy: not shown
light: DIVMTQSPLSLPVTPGEPASISCRSSQSIVQSNGDTYLEWYLQKPGQSPQLLIYRVSNRFSGVPDRFSGSGSGTDFTLKISRVEAEDVGVYYCFQGSHVPYTFGQGTKLEIKRTVAAPSVFIFPPSDEQLKSGTASVVCLLNNFYPREAKVQWKVDNALQSGNSQESVTEQDSKDSTYSLSSTLTLSKADYEKHKVYACEVTHQGLSSPVTKSFNRGEC
notes: anti-HER2 Affibody fusion
As for B12, the binding result in assay [16] is given as “binds”.
